# Source: the nanobody polyreactivity screen of Harvey et al. (2022)
# Assay: yeast display, Sf9 membrane polyspecificity reagent, FACS + sequencing; frameworks hold sequencing errors
# Procedure, shortened: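 Nanobodies came from a synthetic yeast display library in Saccharomyces cerevisiae BJ5465, induced with galactose for 36–48 hours and stained for 1 hour at 4 °C with 10% biotinylated, detergent-solubilized Sf9 membrane reagent. Cells were enriched on streptavidin microbeads and then FACS-sorted, with low and high (top ~1%) gates set on anti-HA fluorescence for expression and streptavidin fluorescence for reagent binding. Each polyreactivity label reflects the gate a clone came from. Genes were amplified by colony PCR, sequenced by MiSeq 2 × 250 and filtered by CDR length.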
row,Sequence,polyreactivity (PSR sort gate)
1,QVQLVESGGGLVQAGGSLRLSCAASGRTFTNYAMRWYIPAPGKERELVAAAITVGGGRTYYADSVKGRFTISRENAKNTVYLQMNSLKPEDTAVYYCATDFGTYWYEYWGQGTQVTVSS,high polyreactivity
2,QVQLVESGGGLVQAGGSLRLSCAASGFTFDVYAMGWYRQAPGKERELVAAIDSGGSTNYADSVKGRFTISRDNAKNTVYLQMNSLKPEDTAVYYCAAPFVGSVVIRRWDEYDYWGQGTQVTVSS,low polyreactivity
3,QVQLVDSGGGLVHAGGSLRLSCAASGSSFTFYAMGWYRQAPGKERELVARISITGGSTYYADSVKGRFTISRDNAKNTVYLHMNSLKPEDTAVYYCAARYYGEHYDYWGQGTQVTVSS,low polyreactivity
4,QVQLVESGGGLVQAGGSLRLSCAASGRIFYEYAMGWYRQAPGKERELVAAITRGDSTYYADSVKGRCTISRDNAKNTVYLQMNSLKPEDTAVYYCNAGVFDYSGDSNYWGQGTQVTVSS,low polyreactivity
5,QVKLVESGGGLVQAGGSLRLSCAASGITFVLYAMRWYRQAPGKERELVASITWDATDTYYADSVKGRFTISRDNAKNTVYLQMNSLKPEDTAVYYCNAAYFNYWWLEYDYWGQGTQVTVSS,high polyreactivity
6,QVQLVESGGGLVQAGGSLRLSCASSGSNTFINAMGWYRQAPGKERELVAAISGSGGSTYYADSVKGRFTISRDNAKNTVYLQMNFLKPEDTAVYYAARTGQYKTYGEYDYWGQGTQVTVSS,low polyreactivity
7,QVQLVESGGGLVQAGGSLRLSCAASGSIFFRYAMGWYRQAPGKERELVAAISSSGGSTYYADSVKGRFTISRDNAKNTVYLQMNSLKPEDTAVYYCAARYYRKYYYSPFDYWGQGTQVTVSS,high polyreactivity
8,QVQLVESGGGLVQAGGSLRLSCAASGSTFSRYAMGWYRQAPGKERELVAAISRRAGSTYYADSVKGRFTISRDNAKNTVYLQMNSLKPEDTAVYYCAARTWTENRDGDYWGQGTQVTVSS,high polyreactivity
9,QVQLVESGGGLVQAGGSLRLSCAASGRIFSKKAMGWYRQAPGKERELVARIRWTGGITYYADSVKGRFTISRDNAKNTVYLQMNSLKPEDTAVYYCAADYLWGTWTTYFRPLLYDYWGQGTQVTVSS,low polyreactivity
10,QVHLVESGGGLVQAGGSLRLSCAASGSTFVGYAMGWYRQAPGKERELVAAISGGDSTYYADSVKGRFTISRDNAKNTVYLQMNSLKPEDTAVYYCNADYGDTFEYDYWGQGTQVTVSS,low polyreactivity
11,QVQLVESGGGLVQAGGSLRLSSAASGNIFYTNTMGWYRQAPGKERELVAAITSGGTTYYADSVKGRFTISRDNAKNTVYLQMNSLKPEDTAVYYCAVRSSKWSWIYYYWGQGTQVTVSS,high polyreactivity
12,QVQLVESGGGLVQAGGSLRLSCAASGRIFRRYAMGWYRQAPGKERELVASISSGGSTNYADSVKGRFTISRDNAKNTVYLQMNSLKPEDTAVYYCAAAYPWQTRYSSPYYYWGQGTQVTVSS,high polyreactivity
13,QVQLVESGGGLVQAGGSLRLSCAASGRTFYSYAMGWYRQAPGKERELVAAISRGGNTYYADSVKGRFTISRDNAKNTVYLQMNSLKPEDTAVYYCAVVRVTYYASIYHRGYDYWGQGTQVTVSS,low polyreactivity
14,QVQVVESGGGLVQAGGSLRLSCAASGSTFRYYAMGWYRQAAGKERELVASITVSVGRTYYADSVKGRFTISRDYAKNTVYLQMNILKPEDTAVYYCAAPRGRLVRPPKYYYWGQGTQLTVSS,high polyreactivity
15,QVQLVESGGGLVQAGGSLRLSCASSGFTFYTNDMGWDRQAPGKERELVAAITWSGGSTYYADSVKGRFTISRDNAKNTVYFQMNSLKPEDTAVYYCAASIGQVTQRRYGTRYYYWGQGTQVTVSS,high polyreactivity
16,QVQLVESGGGLVQAGGSLRLSCAAYGITFYLYAMGWYIQAPGKERELVAAITSSGGSTYYADSVKGRFTISRDNAKNTVYFQMNSLKPEDTAVYYCNALYFSQDRYDYWGQGTQVTVSS,high polyreactivity
17,QVQLVESGVGLVQARGSLPLSCAASGSIFYYYVMGWYRQAPGKERELVAAIRSSGTSTYYADSVKGRFTISRDNAKNTVYLQRNSLKPEDTAVYYCNRARSSSRYDYWGQGTQVTVSS,low polyreactivity
18,QVQLVESGGGLVQAGGSLRLSCAASGRTFCVNAMGWSRQAPGKERELVAAITGGGSTYYADSVKGRFTISRDNAKNTVYLQMNSLKPEDTAVYYCNADRRRRSGGFAGWHFQRNDYWGQGTQVTVSS,low polyreactivity
19,QDQLVESGGGLVQAGGSLRLSCAASGSTFKKYALGWYRQAPGKERELVAAITGSGGRTYYADSVKGRFTISRDNAKNTVYLQMNSLKPEDTAVYYCAARRYLSGGYYYCGQGTQVTVSS,high polyreactivity
20,QVQLVESGGGLVQAGGSLRLSCAASGRIFIRNAMGWYRQAPGKERELVAAITQSGGSTYYADSVKGRFTISRDNAKNTVYLQMNSLKPEDTAVYYCAADGDNPYLHEEDYWGQGTQVTVSS,high polyreactivity
21,QVQLVESGGGLVQAGGSLRLTCDASGSTFVYYAMGWYRQAPGKERELVAAITFSGGTTFYADSVKGRFTISRDNANNTVYLQMNSLKPEDTAVYYCAADAGFADQYANYHGDDYWGQGTQVTVSS,low polyreactivity

row,Sequence,polyreactivity (PSR sort gate)
1,QVQLVESGGGLVQAGGSLRLSCAASGFIFDVNAMGWYRQAPGKERELVATISKRGGTTYYADSVKGRFTISRDNAKNTVYLQMNSLKPEDTAVYYCAARHQTLRSYRYDYWGQGTQVTVSS,low polyreactivity
2,QVQLEESGGGLVQAGGSLRLSCAASGSTSLKNAMGWYRQAPGKERELVAAISSGGSTYYADSVKGRFTISRDNAKNTVYLQINSLKPEDTAVYYCAAKYLRGLGYWGQGTQVTVSS,high polyreactivity
3,QVQLVESGGGLVQAGGSLRLSCAASGSIFGVYAMGWYRQAPGKERELVAAISSRGSSTYYADSVKGRFTISRDNAKNTVYLQMNSLKPEDTAVYYCAARPGIRSYPPGYGYWGQGTQVTVSS,high polyreactivity
4,QVQLVESGGGLVQAGGSLRLSCAASGITFGDYAMVWYRQAPGKERELVAAITSGGSTYYADSVKGRCTISRDNAKNTVYLQMNILKPEDTAVYYCNRQYNQWIHYYYRMDYWGQGTQVTVSS,high polyreactivity
5,QVQLVDSGGGLVQAGGSLRLSSAASGFIFQANAMGSSRQAPGKERELVAAIDDGDSTYADSVKGRFTISRDNAKNSVYLQMNSLKPEDTAVYYCATRRNRSYDYWGQGTQVTVSS,low polyreactivity
6,QVQLVESGGGLVQAGGSLRLSCAASGRTFVWYAMGWYRHAPGKERELVAAISRSGGSTYYADSVKGRFTISRDNAKNTVYLQMNSLKPEDTAVYYCNAQWYVYDYYEFDYWGQGTQVTVSS,high polyreactivity
7,QVQLVESGGGLVQAGGSLRLSCAASGFIFDDNTMGWYRQAPGKERELVAAISYSAGSTYYADSVKGRFTISRDNAKNTVYLQMNSLKPEDTAVYYCAAQHYWVTSYLSSYDYWGQGTQVTVSS,low polyreactivity
8,QVQLVESGGGLVQAGGSLRLSCSASGRTFLYDMGWYTHATGKELELVAAISRGGSTSYADSVKGRFTISRDNAKNTVYLQMNSLKPEDTAVYYCATRGLVGYYSYYYWGQGTQVTVSS,high polyreactivity
9,QVQLVESGGGLVQAGGSLRLSCAASGSTFYYYAMGWYRQAPGKERELVAAINYNGGSTHYADSVKGRFTISRDNAKNTVYFQMNSLKPEDTAVYYCAAKYRLSYTHGYWGQGTQVTVSS,low polyreactivity
10,QVQLVESGGGLVQAGGSLRLSCAASGFIFYVNAMGWYREAPGNERQLVAAISLIGGSTYYADSVKGRFTISRDNAKNTVYLQMNSLIPEDTAVYYCAADPFPGVYDDAIIDYDYWGQGTQVTVSS,low polyreactivity
11,QVQLVESGGGLVQAGGSLSLSCAASGRTFWYKDMGWYRQAPGKERELVAVISSGAITFYADSVKGRFTISRDNAKNTVYLQMNSLNPEDTAVYYCAARSYLSLIDYWGQGTLVTVSS,high polyreactivity
12,QVQLVESGGGLVQAGGSLRLSCAASGSIFDFYAMGWYRQAPGKVRELVAAITSGSNTYYADSVKGRFTISRDNAKNTVYLQMNSLKPEDTAVYYCAARRRIYRSMGYWGQGTQVTVSS,low polyreactivity
13,QVQLVESGGCLVQAGGSLRLSCAASGSIFGWYDMGWYRQARGYERELVAAMTSDGSTNYADSVKGRFTISRDNAKNTVYLQKNSLKPEDTAVYYCAQDGWYYYYPYDYWGQGTQVTVSS,low polyreactivity
14,QVQLVESGGGLVQAGGSLRLSCAASGSTIFGNVMGWYRQAPGKERELVAAISKTGGNTYYADSVKGRFTISRDNAKNTVYLQMNSLKPEDTAVYYCNALRGDWRDMGYWGQGTQVTVSS,high polyreactivity
15,QVQLVESGGGLVQAGGSLRLSCAASGFIFYQYAMGWYRQAPGKERELVATISFRGGRTYYADSVKGRFTISRDNAKNTVYLQMNSLKPEDTAVYYCNAKRVSSRFYKWDYYWGQGTQVTVSS,high polyreactivity
16,QVQLVESGGGLVQAGGSLRLSCAASGSIYLKYAMGWYRQAPGKERELVAAISSRGGSTYYADSVKGRFTISRDNAKNTVYLQMNSLKPEDTAVYYCAAKRWPGTDGYWGQGTQVTVSS,high polyreactivity
17,QVQLVESGGGLFKAGGSLRLRCAPSGSIFDYNTMAWYRQAPGKERQFVAAISSARGGTSYADSVKGRFTISRDNAKNTVYLQMNSLKPEDTAVYYCAALIILTPYQRQYWKYGAYFYWGQGTQVTVSS,high polyreactivity
18,QVQLVESGGGLVQAGGSLRLSCAASGLTFVYYTMGWYRQAPGKERELVAAISGSGDNTYYADSVKGRFTISRDNAKNTVYLQMNSLKPEDTAVYYCAADKSYYYYLFGYDYWGQGTQVTVSS,low polyreactivity
19,QVQLEESVGGLVQAGGSLRLSCAASGSIFSPNAMGSYRQAPGKERELVAAISSNGDSTYYADSVKGRFTISRDNAMNTVYLQMNSLKPEDTAVYYCAAVSIGPGEYDYWGQGTQVTVSS,low polyreactivity
20,QVQLVESGGGFVQAGCSLRLSCGASGLTFKTYAMGWYSQARGKERELVAAMSGTGGGTYYADSVKGRFTISRDNAKKTVYLQMNSQKPEDTEVYYCAALHQAYRGFDYWGQGTQVTVSS,high polyreactivity
